Test results reported in patent US6818749.
Residue numbers refer to the chain shown, from its start.

B1: humanized monoclonal antibody HuCC49 (parental HuCC49) (antibody, V domains shown)
VH: QVQLVQSGAEVVKPGASVKISCKASGYTFTDHAIHWVKQNPGQRLEWIGYFSPGNDDFKYNERFKGKATLTADTSASTAYVELSSLRSEDTAVYFCTRSLNMAYWGQGTLVTVSS
VL: DIVMSQSPDSLAVSLGERVTLNCKSSQSLLYSGNQKNYLAWYQQKPGQSPKLLIYWASARESGVPDRFSGSGSGTDFTLTISSVQAEDVAVYYCQQYYSYPLTFGAGTKLELK
B2: HuCC49 CDR variant L-1 (antibody, V domains shown)
VH: B1 VH
VL: B1 VL with L29V, G33S, Q35S
B3: HuCC49 variant ^97L1,2 (antibody, V domains shown)
VH: B1 VH
VL: B1 VL with L29V, G33S, Q35S, A59T, T103S
B4: HuCC49 CDR variant L-1,2 (antibody, V domains shown)
VH: B1 VH
VL: B1 VL with L29V, G33S, Q35S, A59T
B5: HuCC49 CDR variant H-2 (antibody, V domains shown)
VH: QVQLVQSGAEVVKPGASVKISCKASGYTFTDHAIHWVKQNPGQRLEWIGWINAGNGNTKYSQKFQGKATLTADTSASTAYVELSSLRSEDTAVYFCTRSLNMAYWGQGTLVTVSS
VL: B1 VL
B6: HuCC49 CDR variant H-3 (antibody, V domains shown)
VH: QVQLVQSGAEVVKPGASVKISCKASGYTFTDHAIHWVKQNPGQRLEWIGYFSPGNDDFKYNERFKGKATLTADTSASTAYVELSSLRSEDTAVYFCTRGGYYGSGSGSNYWGQGTLVTVSS
VL: B1 VL
B7: HuCC49 CDR variant L-2 (antibody, V domains shown)
VH: B1 VH
VL: B1 VL with A59T
B8: HuCC49 CDR variant L-3 (antibody, V domains shown)
VH: B1 VH
VL: B1 VL with Y100T, L102Y, T103S
B9: HuCC49 CDR variant H-1 (antibody, V domains shown)
VH: B1 VH with D31S, H32Y, I34M
VL: B1 VL

biological target: anti-CC49 variable region (anti-idiotypic) antibodies in the serum of patient three; experiment: HPLC size exclusion; ^125I-HuCC49 + patient serum, no competitor

In the case of B1, the percent of complexes is reported as 24.5%.

biological target: anti-CC49 variable region (anti-idiotypic) antibodies in the serum of patient six; experiment: as above

In the case of B1, the percent of complexes is reported as 33.5%.

biological target: anti-CC49 variable region (anti-idiotypic) antibodies in the serum of patient two; experiment: as above

Binder B1 has a percent of complexes of 32.2%.

biological target: anti-CC49 variable region (anti-idiotypic) antibodies in the serum of patient five; experiment: as above

B1 showed a percent of complexes of 42.9%.

biological target: anti-CC49 variable region (anti-idiotypic) antibodies in the serum of patient four; experiment: as above

In the case of B1, the percent of complexes is reported as 56.8%.

biological target: anti-CC49 variable region (anti-idiotypic) antibodies in the serum of patient one; experiment: as above

In the case of B1, the percent of complexes is reported as 46.2%.

biological target: TAG72 positive bovine submaxillary mucin (BSM) (bovine); experiment: relative affinity constant from competition RIA on BSM

B2 and B3 cannot be ordered by fold less than the Ka of HuCC49: 2 fold for the first, 2 to 3 fold for the second.

Compared with B4, B5 is higher in fold less than the Ka of HuCC49: 2 fold for the first, 300 fold for the second.

biological target: anti-CC49 variable region (anti-idiotypic) antibodies in the serum of patient two; experiment: HPLC competition, serial dilutions of cold competitor vs ^125I-HuCC49 with serum of patient two

With B1 the amount of competitor for 25% competition was 60 ng.

biological target: anti-CC49 variable region (anti-idiotypic) antibodies in the serum of patient three; experiment: HPLC size exclusion; 5 µg cold competitor + ^125I-HuCC49 + patient serum; less complex = more competition

Going from B2 to B1, the percent of complexes falls from 9.8% to 2.6%.

Compared with B4, B6 is lower in percent of complexes: 12.6% for the first, 3.7% for the second.

Compared with B5, B7 is lower in percent of complexes: 12.7% for the first, 2.7% for the second.

First: B8
Second: B9
The percent of complexes of the first is higher: 22.4% for the first, 3.3% for the second.

biological target: anti-CC49 variable region (anti-idiotypic) antibodies in the serum of patient six; experiment: as above

First: B2
Second: B1
The percent of complexes of the first is higher: 16% for the first, 0% for the second.

Compared with B4, B6 is lower in percent of complexes: 24.6% for the first, 7.3% for the second.

Compared with B5, B7 is lower in percent of complexes: 32.7% for the first, 2.7% for the second.

Compared with B8, B9 is lower in percent of complexes: 34.8% for the first, 10.2% for the second.

biological target: anti-CC49 variable region (anti-idiotypic) antibodies in the serum of patient two; experiment: as above

Going from B2 to B1, the percent of complexes falls from 16.9% to 1.5%.

First: B4
Second: B6
The percent of complexes of the first is higher: 15.7% for the first, 6.7% for the second.

Going from B5 to B7, the percent of complexes falls from 29.7% to 3%.

First: B8
Second: B9
The percent of complexes of the first is higher: 33.5% for the first, 5.8% for the second.

biological target: anti-CC49 variable region (anti-idiotypic) antibodies in the serum of patient five; experiment: as above

First: B2
Second: B1
The percent of complexes of the first is higher: 14.3% for the first, 3% for the second.

First: B4
Second: B6
The percent of complexes of the first is higher: 20.2% for the first, 4.6% for the second.

Going from B5 to B7, the percent of complexes falls from 36.6% to 2.4%.

Compared with B8, B9 is lower in percent of complexes: 46.7% for the first, 3.5% for the second.

biological target: anti-CC49 variable region (anti-idiotypic) antibodies in the serum of patient four; experiment: as above

Going from B2 to B1, the percent of complexes falls from 10.1% to 0.5%.

First: B4
Second: B6
The percent of complexes of the first is higher: 19.4% for the first, 8.2% for the second.

Going from B5 to B7, the percent of complexes falls from 24.7% to 4.4%.

Compared with B8, B9 is lower in percent of complexes: 37.6% for the first, 7% for the second.

biological target: anti-CC49 variable region (anti-idiotypic) antibodies in the serum of patient one; experiment: as above

First: B2
Second: B1
The percent of complexes of the first is higher: 12.2% for the first, 0% for the second.

Going from B4 to B6, the percent of complexes falls from 24.5% to 5.1%.

Compared with B5, B7 is lower in percent of complexes: 32.5% for the first, 3.4% for the second.

Compared with B8, B9 is lower in percent of complexes: 48.2% for the first, 3.9% for the second.

biological target: mouse anti-idiotypic MAb AI49-1 (γ-subset); experiment: competition RIA vs ^125I-murine CC49 on adsorbed AI49-1

Binder B5 has a fold more competitor for 50% inhibition than HuCC49 of 4 to 15 fold.

biological target: anti-idiotypic antibodies to MAb CC49 in the serum of one patient (not named, Example V); experiment: HPLC size-exclusion competition: cold competitor vs ^125I-HuCC49 for complex formation with patient serum

Binder B7 has a fold better competition than parental HuCC49 of 2 fold.

biological target: mouse anti-idiotypic MAb AI49-3 (β-subset); experiment: competition RIA vs ^125I-murine CC49 on adsorbed AI49-3

With B5 the fold more competitor for 50% inhibition than HuCC49 was 4 to 15 fold.
